# Numbering of substitutions follows the chain as printed.
# T1: IL-2Rβ (UniProt P14784 27-240, limits assumed, biotinylated (site not stated))
# T1 construct: also called CD122; IL-2Rbeta
# T1 sequence (looked up): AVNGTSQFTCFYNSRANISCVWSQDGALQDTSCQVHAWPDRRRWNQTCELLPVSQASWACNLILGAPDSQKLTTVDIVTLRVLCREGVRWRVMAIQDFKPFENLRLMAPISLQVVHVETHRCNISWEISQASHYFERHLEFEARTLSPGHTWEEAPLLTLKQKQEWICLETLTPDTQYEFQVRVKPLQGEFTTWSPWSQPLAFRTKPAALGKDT
# B1: in silico designed IL-2 variant SEQ ID NO: 4, MSA fusion protein (ligand, not shown: large carriers; small tags and cut ends)
# chain: APTSSSTKKTQLQLEHLLLDLQMILNMLNNYDNPKLTRLLTFKFYMPKKATSLKHLQCLEEELKPLEEALNQAGDDPKTIRDLISNINVIVLELKGSETTFMCEYADETATIIEFLNRWITFCQSIISTLT
# B2: in silico designed IL-2 variant SEQ ID NO: 13, MSA fusion protein (ligand, not shown: large carriers; small tags and cut ends)
# chain: B1 chain with Y31A, D32S, K35S, L39M, S52E, Q72T, G74A, P77Q, K78D, T79K
# B3: in silico designed IL-2 variant SEQ ID NO: 7, MSA fusion protein (ligand, not shown: large carriers; small tags and cut ends)
# chain: B1 chain with L39M, S52E, G74D, D75S, D76T, P77D, K78E, I80V
# B4: in silico designed IL-2 variant SEQ ID NO: 11, MSA fusion protein (ligand, not shown: large carriers; small tags and cut ends)
# chain: B1 chain with D32S, Q72L, G74S, P77Q, K78D, T79K, I80V, L83V, I84V, I90F
# B5: in silico designed IL-2 variant SEQ ID NO: 5, MSA fusion protein (ligand, not shown: large carriers; small tags and cut ends)
# chain: B1 chain with Q72D
# B6: in silico designed IL-2 variant SEQ ID NO: 12, MSA fusion protein (ligand, not shown: large carriers; small tags and cut ends)
# chain: B1 chain with L39M, S52E, Q72H, G74A, P77K, K78D
# B7: in silico designed IL-2 variant SEQ ID NO: 1, MSA fusion protein (ligand, not shown: large carriers; small tags and cut ends)
# chain: B1 chain with Q72A, L83V, I84V, I90F
# B8: in silico designed IL-2 variant SEQ ID NO: 9, MSA fusion protein (ligand, not shown: large carriers; small tags and cut ends)
# chain: B1 chain with G74D, D75S, D76T, P77D, K78S, T79R
# B9: in silico designed IL-2 variant SEQ ID NO: 10, MSA fusion protein (ligand)
# chain: B1 chain with G74S, D75K, P77Q, T79K, I80V, L83V, I84V, I90F
# notes: not shown: mouse serum albumin (MSA), fusion partner
# B10: in silico designed IL-2 variant SEQ ID NO: 2, MSA fusion protein (ligand, not shown: large carriers; small tags and cut ends)
# chain: B1 chain with S52E, Q72A
# B11: in silico designed IL-2 variant SEQ ID NO: 8, MSA fusion protein (ligand, not shown: large carriers; small tags and cut ends)
# chain: B1 chain with Q72A, G74D, D75S, D76T, P77D, K78E, T79R, L83V, I84V, I90F
# B12: in silico designed IL-2 variant SEQ ID NO: 6, MSA fusion protein (ligand, not shown: large carriers; small tags and cut ends)
# chain: B1 chain with D32E, L39M
# B13: in silico designed IL-2 variant SEQ ID NO: 3, MSA fusion protein (ligand, not shown: large carriers; small tags and cut ends)
# chain: B1 chain with Q72A
# B14: Super-2 (H9) IL-2 variant, expressed as MSA fusion protein (ligand, not shown: large carriers; small tags and cut ends)
# chain: APTSSSTKKTQLQLEHLLLDLQMILNGINNYKNPKLTRMLTFKFYMPKKATELKHLQCLEEELKPLEEVLNLAQSKNFHFDPRDVVSNINVFVLELKGSETTFMCEYADETATIVEFLNRWITFCQSIISTLT
# notes: also called H9 super-2; MSA-H9-super-2
# B15: in silico designed IL-2 variant SEQ ID NO: 16, MSA fusion protein (ligand, not shown: large carriers; small tags and cut ends)
# chain: APTSSSTKKTQLQLEHLLLDLQMILNMLNNYDNPKLTRLLTFKFYMPKKATSLKHLQCLEEELKPLEEALNQAQSKNFHLDPRDLISNINVIVLELKGSETTFMCEYADETATIIEFLNRWITFCQSIISTLT
# B16: in silico designed IL-2 variant SEQ ID NO: 15, MSA fusion protein (ligand, not shown: large carriers; small tags and cut ends)
# chain: B15 chain with L39M, S52E
# B17: in silico designed IL-2 variant SEQ ID NO: 14, MSA fusion protein (ligand, not shown: large carriers; small tags and cut ends)
# chain: B15 chain with L39M, S52E, Q72L
# B18: in silico designed IL-2 variant SEQ ID NO: 17, MSA fusion protein (ligand, not shown: large carriers; small tags and cut ends)
# chain: B15 chain with Q72L
# Target: T1, IL-2Rβ
# Experiment: SPR Biacore T100, steady-state; biotinylated IL-2Rβ on chip
# Experimental: (§1) To perform the surface plasmon resonance (SPR) analysis, the test variant protein was made in Expi293 as described previously. […] Experiments were performed on a BlAcore® T100 (GE Healthcare, Piscataway, N.J.).
row,Binder,Kd [nM]
1,B1,389
2,B2,207
3,B3,85.4
4,B4,22.7
5,B5,362
6,B6,67.6
7,B7,61.3
8,B8,378
9,B9,137
10,B10,411
11,B11,14.2
12,B12,398
13,B13,366
14,B14,16.2
15,B15,290
16,B16,498
17,B17,196
18,B18,268

# Target: T1, IL-2Rβ
# Experiment: SPR Biacore T100, kinetic fit; biotinylated IL-2Rβ on chip
# Experimental: as §1
Binder,Kd [nM],koff [s⁻¹]
B1,339,0.05
B2,174,0.036
B3,56.7,0.0026
B4,8.7,0.0036
B5,292,0.047
B6,51.2,0.023
B7,25,0.0066
B8,330,0.12
B9,105,0.015
B10,332,0.055
B11,5.9,0.0044
B12,315,0.046
B13,282,0.042
B14,2.1,0.0015
B15,221,0.071
B16,227,0.064
B17,171,0.072
B18,241,0.091

# From patent US20220324934A1 (Stanford University, published 2022)
